Reference: US20120172293A1 (Takeda / Millennium, published 2012)
Non-standard residues stand in square brackets, D forms with d. *: point of attachment. βHOAla = beta-homoalanine (β-HOAla), D- or L-form; 4Pal = N[C@@H](Cc1ccncc1)C(=O)O; d(pGlu) = O=C1CC[C@H](C(=O)O)N1; Cha = N[C@@H](CC1CCCCC1)C(=O)O; Cit = NC(=O)NCCC[C@H](N)C(=O)O; Isonicotinoyl = O=C(c1ccncc1)*; Aipe = 3-aminobutanoic acid; dIva = CC[C@@](C)(N)C(=O)O; Iva = CC[C@](C)(N)C(=O)O; Nle = CCCC[C@H](N)C(=O)O; Aib = CC(C)(N)C(=O)O; βAla = NCCC(=O)O

B1: Ac-[Glu23, βAla24, Pya(4)26, Cha27,36, Aib28,31, Lys30]-PYY(23-36) (peptide)
peptide: Ac-E[βAla]R[4Pal][Cha][Aib]NK[Aib]TRQR[Cha]-NH2
SMILES: CC(=O)N[C@@H](CCC(=O)O)C(=O)NCCC(=O)N[C@@H](CCCNC(=N)N)C(=O)N[C@@H](Cc1ccncc1)C(=O)N[C@@H](CC1CCCCC1)C(=O)NC(C)(C)C(=O)N[C@@H](CC(N)=O)C(=O)N[C@@H](CCCCN)C(=O)NC(C)(C)C(=O)N[C@H](C(=O)N[C@@H](CCCNC(=N)N)C(=O)N[C@@H](CCC(N)=O)C(=O)N[C@@H](CCCNC(=N)N)C(=O)N[C@@H](CC1CCCCC1)C(N)=O)[C@@H](C)O
B2: Ac-[D-Pro24, Iva25, Pya(4)26, Cha27,36, Aib28,31, Lys30]-PYY(23-36) (peptide)
peptide: Ac-S[dP][Iva][4Pal][Cha][Aib]NK[Aib]TRQR[Cha]-NH2
SMILES: CC[C@](C)(NC(=O)[C@H]1CCCN1C(=O)[C@H](CO)NC(C)=O)C(=O)N[C@@H](Cc1ccncc1)C(=O)N[C@@H](CC1CCCCC1)C(=O)NC(C)(C)C(=O)N[C@@H](CC(N)=O)C(=O)N[C@@H](CCCCN)C(=O)NC(C)(C)C(=O)N[C@H](C(=O)N[C@@H](CCCNC(=N)N)C(=O)N[C@@H](CCC(N)=O)C(=O)N[C@@H](CCCNC(=N)N)C(=O)N[C@@H](CC1CCCCC1)C(N)=O)[C@@H](C)O
B3: Ac-[D-Pro24, Aib25,28,31, Cha27,36, Lys30]-PYY(23-36) (peptide)
peptide: Ac-S[dP][Aib]H[Cha][Aib]NK[Aib]TRQR[Cha]-NH2
SMILES: CC(=O)N[C@@H](CO)C(=O)N1CCC[C@@H]1C(=O)NC(C)(C)C(=O)N[C@@H](Cc1c[nH]cn1)C(=O)N[C@@H](CC1CCCCC1)C(=O)NC(C)(C)C(=O)N[C@@H](CC(N)=O)C(=O)N[C@@H](CCCCN)C(=O)NC(C)(C)C(=O)N[C@H](C(=O)N[C@@H](CCCNC(=N)N)C(=O)N[C@@H](CCC(N)=O)C(=O)N[C@@H](CCCNC(=N)N)C(=O)N[C@@H](CC1CCCCC1)C(N)=O)[C@@H](C)O
B4: Ac-[D-Pro24, Iva25, Cha27,36, Aib28,31, Lys30]-PYY(23-36) (peptide)
peptide: Ac-S[dP][Iva]H[Cha][Aib]NK[Aib]TRQR[Cha]-NH2
SMILES: CC[C@](C)(NC(=O)[C@H]1CCCN1C(=O)[C@H](CO)NC(C)=O)C(=O)N[C@@H](Cc1c[nH]cn1)C(=O)N[C@@H](CC1CCCCC1)C(=O)NC(C)(C)C(=O)N[C@@H](CC(N)=O)C(=O)N[C@@H](CCCCN)C(=O)NC(C)(C)C(=O)N[C@H](C(=O)N[C@@H](CCCNC(=N)N)C(=O)N[C@@H](CCC(N)=O)C(=O)N[C@@H](CCCNC(=N)N)C(=O)N[C@@H](CC1CCCCC1)C(N)=O)[C@@H](C)O
B5: Ac-[D-Pro24, Aib25,28,31, Pya(4)26, Cha27,36, Lys30]-PYY(23-36) (peptide)
peptide: Ac-S[dP][Aib][4Pal][Cha][Aib]NK[Aib]TRQR[Cha]-NH2
SMILES: CC(=O)N[C@@H](CO)C(=O)N1CCC[C@@H]1C(=O)NC(C)(C)C(=O)N[C@@H](Cc1ccncc1)C(=O)N[C@@H](CC1CCCCC1)C(=O)NC(C)(C)C(=O)N[C@@H](CC(N)=O)C(=O)N[C@@H](CCCCN)C(=O)NC(C)(C)C(=O)N[C@H](C(=O)N[C@@H](CCCNC(=N)N)C(=O)N[C@@H](CCC(N)=O)C(=O)N[C@@H](CCCNC(=N)N)C(=O)N[C@@H](CC1CCCCC1)C(N)=O)[C@@H](C)O
B6: 4-Pyridinecarbonyl-[Glu23, D-Pro24, Nle25, Pya(4)26, Cha27,36, Aib28,31, Lys30]-PYY(23-36) (peptide)
peptide: Isonicotinoyl-E[dP][Nle][4Pal][Cha][Aib]NK[Aib]TRQR[Cha]-NH2
SMILES: CCCC[C@H](NC(=O)[C@H]1CCCN1C(=O)[C@H](CCC(=O)O)NC(=O)c1ccncc1)C(=O)N[C@@H](Cc1ccncc1)C(=O)N[C@@H](CC1CCCCC1)C(=O)NC(C)(C)C(=O)N[C@@H](CC(N)=O)C(=O)N[C@@H](CCCCN)C(=O)NC(C)(C)C(=O)N[C@H](C(=O)N[C@@H](CCCNC(=N)N)C(=O)N[C@@H](CCC(N)=O)C(=O)N[C@@H](CCCNC(=N)N)C(=O)N[C@@H](CC1CCCCC1)C(N)=O)[C@@H](C)O
B7: Ac-[D-Iva24, Pya(4)26, Cha27,36, Aib28,31, Lys30]-PYY(23-36) (peptide)
peptide: Ac-S[dIva]R[4Pal][Cha][Aib]NK[Aib]TRQR[Cha]-NH2
SMILES: CC[C@@](C)(NC(=O)[C@H](CO)NC(C)=O)C(=O)N[C@@H](CCCNC(=N)N)C(=O)N[C@@H](Cc1ccncc1)C(=O)N[C@@H](CC1CCCCC1)C(=O)NC(C)(C)C(=O)N[C@@H](CC(N)=O)C(=O)N[C@@H](CCCCN)C(=O)NC(C)(C)C(=O)N[C@H](C(=O)N[C@@H](CCCNC(=N)N)C(=O)N[C@@H](CCC(N)=O)C(=O)N[C@@H](CCCNC(=N)N)C(=O)N[C@@H](CC1CCCCC1)C(N)=O)[C@@H](C)O
B8: [D-pGlu24, Pya(4)26, Cha27,36, Aib28,31, Lys30]-PYY(24-36) (peptide)
peptide: [d(pGlu)]R[4Pal][Cha][Aib]NK[Aib]TRQR[Cha]-NH2
SMILES: C[C@@H](O)[C@H](NC(=O)C(C)(C)NC(=O)[C@H](CCCCN)NC(=O)[C@H](CC(N)=O)NC(=O)C(C)(C)NC(=O)[C@H](CC1CCCCC1)NC(=O)[C@H](Cc1ccncc1)NC(=O)[C@H](CCCNC(=N)N)NC(=O)[C@H]1CCC(=O)N1)C(=O)N[C@@H](CCCNC(=N)N)C(=O)N[C@@H](CCC(N)=O)C(=O)N[C@@H](CCCNC(=N)N)C(=O)N[C@@H](CC1CCCCC1)C(N)=O
B9: Ac-[D-Pro24, Cit25, Cha27,36, Aib28,31, Lys30]-PYY(23-36) (peptide)
peptide: Ac-S[dP][Cit]H[Cha][Aib]NK[Aib]TRQR[Cha]-NH2
SMILES: CC(=O)N[C@@H](CO)C(=O)N1CCC[C@@H]1C(=O)N[C@@H](CCCNC(N)=O)C(=O)N[C@@H](Cc1c[nH]cn1)C(=O)N[C@@H](CC1CCCCC1)C(=O)NC(C)(C)C(=O)N[C@@H](CC(N)=O)C(=O)N[C@@H](CCCCN)C(=O)NC(C)(C)C(=O)N[C@H](C(=O)N[C@@H](CCCNC(=N)N)C(=O)N[C@@H](CCC(N)=O)C(=O)N[C@@H](CCCNC(=N)N)C(=O)N[C@@H](CC1CCCCC1)C(N)=O)[C@@H](C)O
B10: Ac-[D-Pro24, Nle25, Pya(4)26, Cha27,36, Aib28,31, Lys30]-PYY(23-36) (peptide)
peptide: Ac-S[dP][Nle][4Pal][Cha][Aib]NK[Aib]TRQR[Cha]-NH2
SMILES: CCCC[C@H](NC(=O)[C@H]1CCCN1C(=O)[C@H](CO)NC(C)=O)C(=O)N[C@@H](Cc1ccncc1)C(=O)N[C@@H](CC1CCCCC1)C(=O)NC(C)(C)C(=O)N[C@@H](CC(N)=O)C(=O)N[C@@H](CCCCN)C(=O)NC(C)(C)C(=O)N[C@H](C(=O)N[C@@H](CCCNC(=N)N)C(=O)N[C@@H](CCC(N)=O)C(=O)N[C@@H](CCCNC(=N)N)C(=O)N[C@@H](CC1CCCCC1)C(N)=O)[C@@H](C)O
B11: Ac-[Aib24,28,31, Pya(4)26, Cha27,36, Lys30]-PYY(23-36) (peptide)
peptide: Ac-S[Aib]R[4Pal][Cha][Aib]NK[Aib]TRQR[Cha]-NH2
SMILES: CC(=O)N[C@@H](CO)C(=O)NC(C)(C)C(=O)N[C@@H](CCCNC(=N)N)C(=O)N[C@@H](Cc1ccncc1)C(=O)N[C@@H](CC1CCCCC1)C(=O)NC(C)(C)C(=O)N[C@@H](CC(N)=O)C(=O)N[C@@H](CCCCN)C(=O)NC(C)(C)C(=O)N[C@H](C(=O)N[C@@H](CCCNC(=N)N)C(=O)N[C@@H](CCC(N)=O)C(=O)N[C@@H](CCCNC(=N)N)C(=O)N[C@@H](CC1CCCCC1)C(N)=O)[C@@H](C)O
B12: Ac-[Glu23, D-Pro24, Nle25, Pya(4)26, Cha27,36, Aib28,31, Lys30]-PYY(23-36) (peptide)
peptide: Ac-E[dP][Nle][4Pal][Cha][Aib]NK[Aib]TRQR[Cha]-NH2
SMILES: CCCC[C@H](NC(=O)[C@H]1CCCN1C(=O)[C@H](CCC(=O)O)NC(C)=O)C(=O)N[C@@H](Cc1ccncc1)C(=O)N[C@@H](CC1CCCCC1)C(=O)NC(C)(C)C(=O)N[C@@H](CC(N)=O)C(=O)N[C@@H](CCCCN)C(=O)NC(C)(C)C(=O)N[C@H](C(=O)N[C@@H](CCCNC(=N)N)C(=O)N[C@@H](CCC(N)=O)C(=O)N[C@@H](CCCNC(=N)N)C(=O)N[C@@H](CC1CCCCC1)C(N)=O)[C@@H](C)O
B13: Ac-[Iva24, Pya(4)26, Cha27,36, Aib28,31, Lys30]-PYY(23-36) (peptide)
peptide: Ac-S[Iva]R[4Pal][Cha][Aib]NK[Aib]TRQR[Cha]-NH2
SMILES: CC[C@](C)(NC(=O)[C@H](CO)NC(C)=O)C(=O)N[C@@H](CCCNC(=N)N)C(=O)N[C@@H](Cc1ccncc1)C(=O)N[C@@H](CC1CCCCC1)C(=O)NC(C)(C)C(=O)N[C@@H](CC(N)=O)C(=O)N[C@@H](CCCCN)C(=O)NC(C)(C)C(=O)N[C@H](C(=O)N[C@@H](CCCNC(=N)N)C(=O)N[C@@H](CCC(N)=O)C(=O)N[C@@H](CCCNC(=N)N)C(=O)N[C@@H](CC1CCCCC1)C(N)=O)[C@@H](C)O

target: human Y2 receptor (human) (UniProt P49146); experiment: cell-based or functional assay
Sequence (P49146 whole entry): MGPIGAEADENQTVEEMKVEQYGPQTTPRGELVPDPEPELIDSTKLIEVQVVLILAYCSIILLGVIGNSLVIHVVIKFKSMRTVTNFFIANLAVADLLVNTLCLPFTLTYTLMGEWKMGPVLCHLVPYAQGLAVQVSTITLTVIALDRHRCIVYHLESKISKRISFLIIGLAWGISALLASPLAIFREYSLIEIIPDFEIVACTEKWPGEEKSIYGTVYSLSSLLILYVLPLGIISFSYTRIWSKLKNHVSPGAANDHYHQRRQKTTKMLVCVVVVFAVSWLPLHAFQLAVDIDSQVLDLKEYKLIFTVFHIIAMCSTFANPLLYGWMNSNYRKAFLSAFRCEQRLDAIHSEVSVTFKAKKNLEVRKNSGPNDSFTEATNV

GBA EC50 Ratio ([35S]GTPγS binding) (EC50 compound/EC50 PYY(3-36)) | Binder
3.9 | B1
2.9 | B2
11 | B3
5.2 | B4
1.7 | B5
5.7 | B6
1.3 | B7
1.1 | B8
4.6 | B9
2 | Ac-S[Aipe]R[4Pal][Cha][Aib]NK[Aib]TRQR[Cha]-NH2 [Ac-[Aipe24, Pya(4)26, Cha27,36, Aib28,31, Lys30]-PYY(23-36)]
2.4 | B10
1.9 | Ac-S[βHOAla]R[4Pal][Cha][Aib]NK[Aib]TRQR[Cha]-NH2 (also: later peak isomer, β-HOAla configuration D or L not assigned) [Ac-[β-HOAla24, Pya(4)26, Cha27,36, Aib28,31, Lys30]-PYY(23-36) later peak]
1.1 | B11
6.9 | B12
0.91 | B13
2.8 | Ac-S[βHOAla]R[4Pal][Cha][Aib]NK[Aib]TRQR[Cha]-NH2 (also: former peak isomer, β-HOAla configuration D or L not assigned) [Ac-[β-HOAla24, Pya(4)26, Cha27,36, Aib28,31, Lys30]-PYY(23-36) former peak]

target: human Y2 receptor (human) (UniProt P49146); experiment: RBA: displacement of [125I]-PYY from hY2R/CHO membranes

IC50 Ratio (IC50 compound/IC50 PYY(3-36)) | Binder
7.4 | B1
2.9 | B2
24 | B3
8.8 | B4
8.4 | B5
8.1 | B6
0.39 | B7
2 | B8
6.2 | B9
1.3 | Ac-S[Aipe]R[4Pal][Cha][Aib]NK[Aib]TRQR[Cha]-NH2 [Ac-[Aipe24, Pya(4)26, Cha27,36, Aib28,31, Lys30]-PYY(23-36)]
3 | B10
0.85 | Ac-S[βHOAla]R[4Pal][Cha][Aib]NK[Aib]TRQR[Cha]-NH2 (also: later peak isomer, β-HOAla configuration D or L not assigned) [Ac-[β-HOAla24, Pya(4)26, Cha27,36, Aib28,31, Lys30]-PYY(23-36) later peak]
0.81 | B11
7.5 | B12
0.58 | B13
2.4 | Ac-S[βHOAla]R[4Pal][Cha][Aib]NK[Aib]TRQR[Cha]-NH2 (also: former peak isomer, β-HOAla configuration D or L not assigned) [Ac-[β-HOAla24, Pya(4)26, Cha27,36, Aib28,31, Lys30]-PYY(23-36) former peak]
